Experimental data: patent publication US20240182549A1, “PEPTIDES AND ANTIBODY FUSIONS THAT BIND TO SARS-COV-2 AND METHODS OF USING SAME” (priority 2021, published 2024)

Key:
[1] = molecular target: S protein of authentic SARS-CoV-2 variant D614G, on virus (SARS-CoV-2) (UniProt P0DTC2); assay: cell-based or functional assay
[2] = molecular target: S protein of authentic (isogenic) SARS-CoV-2 variant B.1.351, on virus (SARS-CoV-2) (UniProt P0DTC2); assay: cell-based or functional assay

IgG REGN10933 (antibody)
IC50, focus reduction neutralization test [1]: 10 ng/mL | IC50, focus reduction neutralization test [2]: > 1000 ng/mL
